Measurements reported in the NTF2 design screens of Basanta et al. (2020).

Test: protease stability score; higher = more stable; yeast display proteolysis, trypsin and chymotrypsin;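 note: relative to predicted unfolded state with 0 unfolded-like and 1 meaning tenfold more protease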

Sequence | protease stability score
DEDENLMRQFWETWEEALKTGDEHILHNLMDPNYRFIIGDKEHHGREAAEEFIRRVDHVTDIKFHRYRRIGDKIQIDGHLDGEINGKRNRYRSDIFVLKIDGRWFIHSVQIK | 2.31
DEDEQAFRHIMELKIHNINTGDEESLRRLMDPHVRIIIGDKQFHGMEFATEVFRRLGIKYIEDFKIDDLRIQGDKLDAHVTVRGNFNGVHTFHKMRLILRKYDGRWYIEHEEIK | 2.14
DEDEQELRDALERWIRAMYTGDEKTLRDLIDPNVLIDINGKIIHGRHKLSQHLREIRIHHFEMHIEDYRFQGDKVHMDVREKRHWVIGDKHIDESRSVTLIIVKFDGRWLMHRVIVH | 1.19
DEDEQFWRNLAEEFMRALETGDEERMQELFDPHARLDIDGRRFHGWDTVIKFFEDLLKHLGITRIEFVYRRVRVINGVFHIEGEINVDGQTRDSRIENIVVDGKSQELRFNHR | 0.298
DEDEQHSELLFRLLYHARKTGDWRKLQELADPHTRFQIGEWDLIGWKMYLEYVRNFRNVHLEFHIKDFRLYGEKTHSNVETIIRIGDKTLNIETELRVDVVNGRIKFIEVHER | 0.994
DEDEQKHREAAHLMLEMILTGDFEYFRHLLDPDVRLEINGKEIHGREEVYRHLLEWWQRIKNVRIKFKTMRIHIFDGVLFIHLDLEIEIGDKSIKTEILIVSIKIDGRWLLNSLHIHDR | 1.04
DEDEQMKESLLKIYRQSMHTGDEESHERLADPNVRVDWDGVRYHGRHILAIILHELGADHMDLKIKDSRLVNGRIHMTVIEIIDIGDKKHKIETHLIADKFDGRWHLRTLEIR | 0.785
DEDERAIHVMLKLVKKAMDTGNEHMETELLDPNVRLDVNGRDVHGREEMRKFLNHHWKEWGVDRIIFLFESIHFQGDKVHIRGYVHINGKDFDVEFIASKVNGRWLVESRHLR | 1.03
DEDERAYEESVRTFLENNLTGNEEILHRLMDPHVKTDYGDKRYHGMEEATEMIRRLGVNHFHLNSVHHQGDKVHLHGRVIVNGREFQVHIESKKINGRWVIRKVVID | 1.27
DEDERDARKITDDYLHHLTTGDWNLMDTLADPHMKMDVNGQEIHGRESMVDLMLEWRFEHTDVHDKHVRSYDGKLEIHLDVHSRVHYNGRTDDTRREITLHIHKIDGRWRLEEVRIHYL | 0.695
DEDERDARKTSHLFLEAFTTGDEDLLRDMVDPNARSIVNGQEEHGWEVIHKTVRELQERYPNVKIDVNDWSYEVQGDKMRTILHFIIHFDGVHVEIHIHVFSRKINGRWVIRRIEYHER | 2.07
DEDERDFRHYMELFQKAHETGDEDHFIKMMDPNARFLINGVHLHGWKEFVRLLEHIRMDVSDTRIRTVDSQGDKVRADTELIFRGKIDGREIDVTFETRIIIEKVDGRWHLREIRVH | 1.3
DEDERDTREAIELFRESIRTGDERILEEMVDPNVRLEFNGKHHHGMEHLVKWFSFLAKHWRVDIDLHHLEVQGDKVHSDERIDLVQGDKIVHTEVKIIFRKINGRWLMHKIRIN | 1.4
DEDERDTRLALEELLRVSRTGNEHDHHRLVDPHVRMEINGRELHGWEVLVRLMHRYDHQELRVREVRVIGDKIDVDTENIVNFNGVEIVLETSIVARKIDGRWLIHSIHIG | 1.23
DEDEREAERSIREELEYTRTGDEDFIKRLADPHVKLNIDGQRHHGRETVVKIMVEARIKDLHIERLTVIDGRVHMRGRMEGNFNGRDTEVEVHIKLKKVNGQWHVRDFEIR | 1.14
DEDERELQELREHFIRKFLTGDWEAIANLFDPNTRMNFNGREVHGMEEVMRVFWEIMEKLGVDHQTIHDVKWQGDKLEVHSYLDINGRRHKLRIELQVIDGVIRSVHFEIE | 1.21
DEDEREMERWFQEILEDLRTGDFRSISRMVDPHAKVDVNGQERHGREQVENLIRRFKNATIHITHVDLDVVNGKLVVRIDTRLHVDGQTRKTEIIVISNKVNGRWFMESLSFKIE | 0.904
DEDERERRWIYQLFLYLFITGDFHTLENLFDPHMRLHYGNKEYHGREEVSKTMLKIWRDLGVKYLSLRHFHIEIFNGRVSLHFYGEQDINGVHRDIEFRVDLVKINGKWVIEQIDLRIN | 1.62

Sequence | protease stability score
DEDERESHNFMHEMEKAAKTGDWRKFEEMFDPDVRTIIGDKEDHGWEVAVKLFLDLGIKVLKVKRVDVVDGRLELEMELHFNGVIRKVTLRTKKVNGRWQVKELRFE | 1.57
DEDERETRFIIKLLLETIQTGDEKTFEELLDPSVRLVVGDKIIHGRDVLSEFFSHARFHRIEIHNMESQGDKAHIDIRVDGKFNGKRKTTEVNLHIEKFDGRWRIKEFRIH | 2.08
DEDEREVAEVLRRWLHDFLTGDEKEFHRLVDPHVKYREHYNGQQIHVHGRENLFEFIRRRNEEMRMEILIRDWKVQGDYAESEGEVIFDINGRIHSVDLRVEIIVVNGRVSKVHISVN | 0.847
DEDEREVKHWLKILLHELWTGDFRNVSRLMDPHARLLINGVTVVGREEFLEVLRRVDHIELRIRDMKVIDGRIHAETELIEHFDGRTFIHDTHMRAKKVDGRWRIESIEIR | 1.31
DEDERFAEIAIRLMIEIIKTGDEREEDKLIDPHARLIVGDWLIHGRDELVRYLTHLRIEHLEIKTWEVVNGRVKLTTRIHLRINGRHHETDQVNIIEKVNGRWYMKLIEFK | 1.19
DEDERFFHEMLELWMHIYETGDWNRLHELFDPNALLLIGDKQVHGREKVTHYLFEMVHRADHSESRVRELHVIDGRVHIHLELHIDQGDKHLRIEIFLHAKKVNGRWVFTKLELR | 1.99
DEDERFTKFAWELLVKALVTGDEDSLKDLFDPHARIFYNGRINHGRESFVKHLMEIRFKRIEMRRFDFFDGRVRMEGEVEGEVDGKEDHYRIEIVVKKYDGRWELKEFRLV | 1.68
DEDERHARKVLELWLQSLLTGDEELTDHLLDPRVKILVDGVELHGREHARMFHRHIHMRIDHMKDFHIHSFTSVGDKVHVDIRIHFRQGDKEYRLNQRTLILKVNGRWVIEKIEVD | 2.22
DEDERHFEIWFKLFIHLYLTGNEETLRHLADPNVRTVYNGRDFHGWDEMVRIHHEMFDFYKGLRVEKVNVESVEIFDGRVLILLRIRVLVNGRTTDDHIHVEAKKIDGQWIIESVDFR | 1.65
DEDERHMEKMWRDWVHARYTGDEHRLDELFDPDARMLIDGVDAVGREEVHRLLHKMLKRLGIKHIEHVRITHIEIQGDKIHIENEIRGIVGDKTTTVEVHLVIIKVDGQWRIRSVEEK | 1.14
DEDERHMRQTLEDYDHAVETGDWKRLRELADPDYKTDIDGVEIHGMELFWEHLRREVEKYKNVKVEFRLKRIRSIGDFMEIDGRLTLKYGDKEIRVRVIIHAIKVDGRWLFHRMIFG | 1.69
DEDERHTKILIDLLLHNSHTGDEHVLRHLFDPNVKIVIGDKELIGREYADQFIKRVDVIDHIEIKDWHTIGDKVHFHGETEGVIDGRKVHTHVKLEMKKFDGRWLIHRIVIR | 1.95
DEDERISRNFVRLILHAIRTGNENMIKTMADPNDRLEVGDKEFHGRELALEFWFRFDVLKEFHIRSVHSQGDKLHIEGESTWVIGDKEIRTTEHRLIIKIDGQWVLTEIKME | 1.62
DEDERLAEEAVKLLIEINRTGDEDLFERNIDPNAQSDINGRRLHGMEQISEFLLRIKNIKLQPRHVDVQGDKMRVEGHLHINGQTHEVRWFVTKINGVWLITEIRVH | 1.12
DEDERLAEEFFEKFTRDIYTGDWRALRELLDPNVRLHINGRNHHGREELLYFEIEIYRRADHVEHRLREVTLFDGRVHVDVEIILHQGDKLIVLHVILFMEKVDGRWILRRKEVR | 1.5
DEDERLAKHFIELFIESFLTGDFDEVRKLIDPHTRVEIIIGDKVIEDHGWEAYSRTFNHLGIDHIHREDFRVTLVNGRAVLRLQFRIEIGDKEFDMHIHVFSNKINGRWHVERILIYVR | 2.34
DEDERLEEEALRLLRHSLHTGDERIITELADPHARLEFNGREFHGREDFLRFIVHMRVRHEEEKSVRLQGDKVDVNWHMVVLFDGQLRRQDVRLILWKFNGRWHIKSIRIE | 1.5
DEDERLFEEATRLWSKLVLTGDEKRLEELMDPNVRVVIGDKVFHGREIAVKVVKELRVEHIIIRRWEIIGDKAHIRGESRGIVNGVERVSTLDLTLLKIDGRWIIESIRLE | 1.09
